Experimental data reported in patent publication EP2032607B1.

Legend:
[1] = target: activated FIX-albumin fusion protein with non-cleavable linker 980/797 (human) (UniProt P00740); assay: cell-based or functional assay
[2] = target: activated FIX-albumin fusion protein with cleavable linker 1088/797 (human) (UniProt P00740); assay: cell-based or functional assay

- clotting time (naPTT) after 120 min incubation with AT [1]: 411 s
- clotting time (naPTT), control with AT but without incubation [1]: 196 s
- clotting time (naPTT) after 120 min incubation with AT [2]: 540 s
- clotting time (naPTT), control with AT but without incubation [2]: 210 s
- factor of increase in clotting time (naPTT) after 120 min incubation with AT [2]: 2.57 x
Substance: antithrombin III (from UniProt P01008 33-464)
